Positions of bridges follow the written chain, without caps; N, C: chain ends. No end group written: not given here.
Columns and labels:
Ile83Glu anti-HER2 memAb = assay: SPR
[1] = biological target: anti-HER2 memAb (trastuzumab-based, meditope-enabled anti-HER2 antibody); assay: SPR
Sequence of anti-HER2 memAb (trastuzumab-based, meditope-enabled anti-HER2 antibody) (VH, as listed by the source, chain 1 of 2): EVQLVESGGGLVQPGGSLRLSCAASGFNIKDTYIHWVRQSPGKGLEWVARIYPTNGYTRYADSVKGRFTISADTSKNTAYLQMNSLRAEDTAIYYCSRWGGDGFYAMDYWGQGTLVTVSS
Sequence of anti-HER2 memAb (trastuzumab-based, meditope-enabled anti-HER2 antibody) (VL, as listed by the source, chain 2 of 2): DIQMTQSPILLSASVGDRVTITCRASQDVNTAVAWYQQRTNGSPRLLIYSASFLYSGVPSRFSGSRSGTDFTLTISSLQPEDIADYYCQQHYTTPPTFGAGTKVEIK

Sequence of Ile83Glu anti-HER2 memAb (VH, as listed by the source, chain 1 of 2): as the sequence (VH, as listed by the source, chain 1 of 2) above
Sequence of Ile83Glu anti-HER2 memAb (VL, as listed by the source, chain 2 of 2): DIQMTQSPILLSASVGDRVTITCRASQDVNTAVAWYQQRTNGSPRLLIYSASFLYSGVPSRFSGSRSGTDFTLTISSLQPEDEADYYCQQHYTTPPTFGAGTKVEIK

Kd (Ile83Glu anti-HER2 memAb) [nM]	Kd [1] [nM]	Binder
20		CQFDLSTRRLKC (disulfide 1-12 (inferred)) [original meditope (CQFDLSTRRLKC)]
	39	Ac-CQFDASTRRLRCGGSK (disulfide 1-12 (inferred); not fully specified (residue 5); printed as (Ac)CQFDA(Ph)2STRRLRCGGSK) [5-diphenylalanine long meditope ((Ac)CQFDA(Ph)2STRRLRCGGSK)]
